# Source: the DeepSol protein solubility set
# Experiment: soluble on expression in E. coli; label from the status in PepcDB or PDB records
row,Sequence,soluble on expression in E. coli
1,MHSAKNEKCNACGGYRFSVNDGFKYCDRCGALFENFEELEEEEGGLQQTVGQGKVKVRKNDDQKRVRNNAAPVNLPKAQVMREALEKRSDFLQQQAIKGEELELPHDATPDYLYRLALRLFSFTQILAKSGHILVHELNFESRVQENILATFQKYLAHCQVAFCHSEQCGNDEHLRFVAVMENLRYEQEEREEKQRKRMAKRGKGVNALSKSAAAWTLLTQGNITEHLDIASDEDGDQDAQGGQQLDDLTLETTQNPDESIRVNDTTMGFVRKVTTALSKEALRRASQLILNLEMLVAILHSALMSSGYQTILTSDVVRWIREDRFRISRRSIRLIRQSQPERMKQGEVVKPTIVDYAEPFLRFPLYEIMRTCTIFHQSLKLASSMAPQSFESMSARLVDNLNLPSDILSRMLILESIIPCDVSPQLLKQVDVDMGYNCGQLAAMSPNVYYSGFLTSFGRKERGTQDADFCDEVLLSPDAKLIAYLLLTLRLTFQLDNAQCALQDDQYFDVDSWIHQLEMRIKCWQGHNMSLVMRSSSHVPEMVVDPPFGTNYLFHQEKGAPQVSCRRRQAGFQKCIPTEMSFNSTSTLPTVFDVRHMGLLTERCQMEALISPVKFQRTVLGNEIERDPLTFENVDRQSKNTFFKHFSAFKTTESCDTFEEYFPCAKNYLLFKRPDWIQNCTARQTHFNPVTGPIRFYLSNQSCDDLLGTAATSFSRRFQFLLDALSLIIGEDKKAVYAAFVMLEMHLTSSERIQSIRDDLLTSSPITLKCQKFRNSTHHIPRKYGVISEVPIDRIENLRYFRLSRQFFEHEEMPTTINMELIDYRNQEIRDSVTETEVQRAQNRIMKLCYEFEQFFGILAVKFW,soluble
2,MHSVARENLQAYLHSYKLSSNEPGIKLMHNSQRDDQHRKDVEHFAALRALQHSKRKHVAFAVQAMRDYDGSLDEKSPLKDHTISFNTNDFIHIHTKFNSDWWIGRIVRSHSEFGFVPTARRLANYMVSDEDPPVKHNTSDHQDRSIWEPKCPYKVVPSSRPIVLLGPTLQHSRLTQLLHLALREEILKHFGKNMKYVKSDIGSGQQSGDRKGARWLRGLRDYDRGQDENQEVELIMRMTSKLHLLLVDSPHIHTPDDVQHLPLSPIFFLIRVSDNKILAKLLRNTGTTRMAAEIEVANVLKTMNDDRVGGHDDEQLIARGFEMVIEENGLREATRRIISYLEKYIHALHYHHKDDEI,not soluble
3,MHTIDVIDSHTAGEPTRVVLAGFPDLGDGDLAQCRERFRSDFDHWRSAIACEPRGSDTMVGALLLPPRDPSACTGVIFFNNVGYLGMCGHGTIGVVRTLAELGRIAPGQHRIETPVGTVGVALADDGTVSIDNVESYRHAAGVEVDVPGHGRVRGDVAWGGNWFFITEQAPCALGLAQQRELTAYTEAIRLALEAAGITGEAGGEIDHIEISGVAPDGSGAARNFVLCPGLAYDRSPCGTGTSAKLACLAADGKLAEGERWLQQGILGSAFEGSYRHSGRGIAPRISGHAFITARSQLLIDPADPFAWGIVALEHHHHHH,not soluble
4,MHVLIVDDEPLAREELSYLVSQHPQVTSVAEADSVAEAMEEMMDQKPDLLFLDIHLTDESGFDLAEKLTHLKKAPYLVFATAYDQYALKAFQVNAKDYILKPFEEEKITQVIEKASKEMGQAVPENTAEKGPKSEAIPIQGEDRIYLVAPEDIYLVSVEERQLSIFVDQQVYKMTGTLNSIEQKLPATLFIKTHRSFILNRTKIQEIQPWFNNTLQVILTNGSKVPVSRSYVKEFKEKLGLS,not soluble
5,MHVTRNVGKSQKLHHVSLKQVLSYLEPHEQEDTKPVTSTKNKGFLLFNSHQNTLNTHMHGAMNSPCIDFVMFSRGQHDEDNMSRRPPWKRERSMSTQHHHLNLSPNEDEELANCLVLLSNSGDAHGGDQHKQHGHGKGKTVKKQKTAQVFQCKACKKVFTSHQALGGHRASHKKVKGCFASQDKEEEEEEEYKEDDDDNDEDEDEEEDEEDKSTAHIARKRSNAHECTICHRVFSSGQALGGHKRCHWLTPSNYLRMTSLHDHHHSVGRPQPLDQPSLDLNLACQEYSVDPTAMSVGMIERDGGGNNHNATSSSWLKLASGDWS,not soluble
6,MHYCEPGWFELIRHRLAFFKDNAAPFKILFLADLHYSRFVPLSLISDAIALGIEQKPDLILLGGDYVLFDMSLNFSAFSDVLSPLAECAPTFACFGNHDRPVGTEKNHLIGETLKSAGITVLFNQATVIATPNRQFELVGTGDLWAGQCKPPPASEANLPRLVLAHNPDSKEVMRDEPWDLMLCGHTHGGQLRVPLVGEPFAPVEDKRYVAGLNAFGERHIYTTRGVGSLYGLRLNCRPEVTMLELVLEHHHHHH,not soluble
7,MHYLSPLSLSLFLFCIEGHRESFSFFPSHDDGWAEPTARSEGKRERERERERERERGERGPTDTLSLSLSQFT,not soluble
